Results published in the DeepSol protein solubility set.

Assay: soluble on expression in E. coli; label from the status in PepcDB or PDB records

Sequence | soluble on expression in E. coli
MLTIIKTILDVIVGVKERDYVKNTFNQLLKEKNITNYQYIRTAGNQILIDDRDILYVIHDKGWVSRGYGRITDIELSIDDSVAFQSSLSSATGRAIAGGVLAGGVGAIIGGVTGRKNGKKIVHRITLTISFNTPDRPYARVTFLDNQQGVDIYSDEYKRAEEDALYWSKLISSLMN | not soluble
MDLYYRPGSAPCRSVLMTAKALGVEFDKKTIINTRAREQFTPEYLKINPQHTIPTLHDHGFALWESRAIMVYLVEKYGKDDKLFPKDVQKQALINQRLYFDMGTLYKSFSEYYYPQIFLKKPANEENYKKIEVAFEFLNTFLEGQTYSAGGDYSLADIAFLATVSTFDVAGFDFKRYANVARWYENAKKLTPGWEENWAGCQEFRKYFDN | soluble
MSENPVVSDKKPGPSKDSSFFSDLYDNLNQNPYFNAGAGLAGIGIAMSFLRRTAQISNTYFRRRFMINLQINNEDAAYPWLLDFINNRSATQTRNLSANTVVHQAESGKTELSISFLPGHGTHFFVHDYRWIKVERQREKQVIQRDGIRTPFETVTLTTLGSDVKFFKRMLEQSAKEAIDNAETGLVIYQAVGPQWIRFGVPRKKRDIESVILDGRICEELVEDFQEFISSATWYADRGVPYRRGYLFYGPPGTGKSSFISALASHFGYSVCLLSLSERTLDDDRLNHLLNTAPPNSVVILEDIDAAFVSREDPMSNHPAYQGLSRVTFSGLLNALDGVACAEERLTFMTTNYVERLDPALIRPGRVDRKQYFGNATDGMLSKMFSRFYRQPSDSVLADEFVKRVSEHKTELSPAMIQGHFLMYKQDPRAALDNIKNMFKTV | not soluble
MGCAEEKKTDVRWATFNIRYDNPQDSLNNWQYRKDRVCQFIKDHELDIVGMQEVLHNQFQDLRAGLPEYDGIGVGRDDGKTAGEYAPLFYRKDKYEVLDSNTFWLAENPDSVGMMGWDAVCVRIATWAKFKDKATGKIFMAVNTHFDHVGEEARRQSALLIIRKIKEIVGERPAVVTGDFNVTDASDAYETITTNEFVMKDAYKTAARVTGVDYTFHDFARIPAEDCEKIDFIFVTPQVLVKSCEIPAEVPEALLSDHNPQLADLELEHHHHHH | not soluble
MNTGEMKINWVSRYMPLLNKIAEEYSREKPLSGFTVGMSIHLEAKTAYLAITLSKLGAKVVITGSNPLSTQDDVAEALRSKGITVYARRTHDESIYRENLMKVLDERPDFIIDDGGDLTVISHTEREEVLENLKGVSEETTTGVRRLKALEETGKLRVPVIAVNDSKMKYLFDNRYGTGQSTWDAIMRNTNLLVAGKNVVVAGYGWCGRGIALRAAGLGARVIVTEVDPVKAVEAIMDGFTVMPMKEAVKIADFVITASGNTDVLSKEDILSLKDGAVLANAGHFNVEIPVRVLEEIAVEKFEARPNVTGYTLENGKTVFLLAEGRLVNLAAGDGHPVEIMDLSFALQIFAVLYLLENHRKMSPKVYMLPDEIDERVARMKLDSLGVKIDELTEKQRRYLRSWQ | soluble
MRTLKELERELQPRQHLWYFEYYTGNNVGLFMKMNRVIYSGQSDIQRIDIFENPDLGVVFALDGITMTTEKDEFMYHEMLAHVPMFLHPNPKKVLIIGGGDGGTLREVLKHDSVEKAILCEVDGLVIEAARKYLKQTSCGFDDPRAEIVIANGAEYVRKFKNEFDVIIIDSTDPTAGQGGHLFTEEFYQACYDALKEDGVFSAETEDPFYDIGWFKLAYRRISKVFPITRVYLGFMTTYPSGMWSYTFASKGIDPIKDFDPEKVRKFNKELKYYNEEVHVASFALPNFVKKELGLM | soluble
GPGSMIYVSERPMARTFVVFDKDGKPAERPDEYFPLVQMDKEEFVNRRRGHVADENLFAVDGDLILSHLIMGTQIMYDAEKNAVHSCDTGESEADGSIPISVRVLSDEFVVRHESQPDCLAWGSEAPSVYAG | not soluble
MASWSHPQFEKGASLDSPTFGCTDSPVRRERGQKAVFCGLTSIVWLHRKMQDAFFLVVGSRTCAHLLQAAAGVMIFAEPRFGTAVLEEQDLAGLADAHKELDREVAKLLERRPDIRQLFLVGSCPSEVLKLDLDRAAERLSGLHAPHVRVYSYTGSGLDTTFTQGEDTCLAAMVPTLDTTEAAELIVVGALPDVVEDQCLSLLTQLGVGPVRMLPARRSDIEPAVGPNTRFILAQPFLGETTGALERRGAKRIAAPFPFGEEGTTLWLKAVADAYGVSAEKFEAVTAAPRARAKKAIAAHLETLTGKSLFMFPDSQLEIPLARFLARECGMKTTEIATPFLHKAIMAPDLALLPSNTALTEGQDLEAQLDRHEAINPDLTVCGLGLANPLEAKGHATKWAIELVFTPVHFYEQAGDLAGLFSRPLRRRALLNGGAA | soluble
MSRTKDQAAAVLPTLLSALRLPSISRNWKHLTDTADRDGWPAANLLACLLEIEMAERASRRIQRHREQSGLPAGKTFATFDFDFPSGIRKPHLLSLATGEGWIESGGNILIFGQSGTGKTHVIAAIGHALIDAGRRVLFSTTTEMVQKLQAARRELSLPSMLDKLDKYDLIVLDSCAVRRDVESPSLGATFARRVARATQHKAAALEHHHHHH | not soluble
MPMLTRILLLLCVALNAPLASAKETLHIYAASSMTNAVNALVADYSQQHDVKLVTVYGGSSSLARQIEAGAPADLFISANEEWANYLVEKGLVKPNKVVTLAANSLVLIRPTAQPVASFELQDAAAWQTALADSRLAVAQVDAVPAGMYAKQALQHAGVWPELESRLAQTNNVRLALALVERGESPLGIVYKTDALLSDKVTIVTAFSAQSHQPIRYPLAQLNDKAASAEWVAYLRSDAAQQILQRFGFESVSE | not soluble
GMTRPAHPISRYPVPELAALPDDIRQRILEVQDKAGFVPNVFLTLAHRPDEFRAFFAYHDALMLKDGGLTKGEREMIVVATSAANQCLYCVVAHGAILRIYEKKPLVADQVAVNYLKADIPPRQRAMLDFALKVCKASHEVNEADFEALREHGFTDEDAWDIAAITAFFGLSNRMANTIGMRPNDEFFLMGRVPKSK | soluble
MQIWHMEPFPCGDRRLPHHVFPPKKITTTQLGQLAGVQYYKVDLDDTASMKKRLSAVKTEKNVTFTDMFTVSETMLEFDDKMEQFYEPQVQKEDVISLVVEGTCYYDVEPEDDSWIRVQVEKGDLIVIPKGLSHRFTTTPQNFVKIQRFFSRKVEGNQG | not soluble
QSELTQPRSVSGSPGQSVTISCTGTSRDVGGYNYVSWYQQHPGKAPKLIIHDVIERSSGVPDRFSGSKSGNTASLTISGLQAEDEADYYCWSFAGSYYVFGTGTDVTVLGQPKANPTVTLFPPSSEELQANKATLVCLISDFYPGAVTVAWKADGSPVKAGVETTKPSKQSNNKYAASSYLSLTPEQWKSHRSYSCQVTHEGNTVEKTVAPT | soluble
MGSDKIHHHHHHIRPIQRGKANAKVEFGAKIDCSLSEGVVDIERFDFTAFSEGQDFTETLDHYYDLHGHYPDEVLADTLYRNRENLKLCKDLGIRVCGPKLGRHPKNVDAAKRREDTDAENRRGTIERRFAFMKGTLGLDLVNTRTAESLAVKIDAAIVLSNALTLLRVFAIPILILAKFEGEAYRIRYKFTTRVEDMLA | not soluble
MSLKGSLMPANVLFSARSELWPVYQPLISTYLREMGIDFDLRRDFPPEEVDYVVYAPNGGLRDFTPFTRLKAVLSLWAGVESIADNPTLTVPLARMVDHGLTQGMTEWVVGHVLRYHLGMDAHIHGLNGDWRQDVPPLASQRQVTILGLGALGEAAARALSALGFQVTGWSRSPKELPGIACLHGPDGLDQALARAEILVLLLPSTAATENTLNTQTLARLPRGARIINPGRGPLIDDDALLAALDSGQVGHATLDVFRIEPLPRDHPYWGHPNVTVTPHIASETRPETAAQVICEEGHHHHHH | soluble
MLVAPFASQLPFVEETLHSSYQALQWGKNIFAIAHKTLSARLLNTVFPTEERTQPLSPELQAWLKERYEALLQQDWQDAAAGFYPATLLFDAPWEEFLRFYPLLLLDLPQMWQRARSRQFQEFAHNVRLEDYPQYYRQNFHYQTDGYLSDTSANLYDIQVELLFGGTADAMRRRVIAPIAQQVVAHPPTPPLRILDVACGTGRTLKQLRYAFPGAVLFGLDLSPAYLRKANALLATQTGALPQLIQGNAESLPYVDSYFSAITCVFLFHELPAPVRQNVIHECARVLQPGGIFVICDSIQSLDSPEQRPMMENFANLFHEPFYRNYIEDDLNLRLEKAGLVVKEVQHHFMSKYWVAVKPSLEHHHHHH | not soluble
